Patent US20260317420 (published 2026)
Each block holds one binder with its values, some of them ahead of it.

Key:
human Claudin18.2 [1] = target: T1, human Claudin18.2 (human, UniProt P56856); assay: BLI
human Claudin18.2 [2] = target: T1, human Claudin18.2; assay: BLI, bivalent
mouse Claudin18.2 = target: T2, mouse Claudin18.2 (mouse, UniProt P56857); assay: BLI
T2 chain: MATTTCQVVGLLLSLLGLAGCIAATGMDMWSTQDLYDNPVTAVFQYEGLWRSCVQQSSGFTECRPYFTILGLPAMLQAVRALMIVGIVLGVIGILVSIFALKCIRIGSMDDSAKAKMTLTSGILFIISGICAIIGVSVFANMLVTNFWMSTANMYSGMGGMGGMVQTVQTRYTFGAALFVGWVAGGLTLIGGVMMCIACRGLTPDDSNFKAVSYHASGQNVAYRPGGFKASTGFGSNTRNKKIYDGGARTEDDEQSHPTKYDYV

rat Claudin18.1 = target: T3, rat Claudin18.1 (rat, UniProt Q5I0E5); assay: FACS
T3 chain: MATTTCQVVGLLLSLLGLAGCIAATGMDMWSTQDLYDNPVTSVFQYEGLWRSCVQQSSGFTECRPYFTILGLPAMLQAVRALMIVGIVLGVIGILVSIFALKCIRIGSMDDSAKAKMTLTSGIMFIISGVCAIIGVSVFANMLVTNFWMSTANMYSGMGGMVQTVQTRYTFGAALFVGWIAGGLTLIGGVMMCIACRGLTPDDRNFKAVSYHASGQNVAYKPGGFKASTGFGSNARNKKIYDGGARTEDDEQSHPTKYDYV

mouse Claudin18.1 = target: T4, mouse Claudin18.1 (mouse, UniProt P56857); assay: FACS
T4 chain: T2 chain

human Claudin18.1 = target: T5, human Claudin18.1 (human, UniProt P56856); assay: ELISA
T5 chain: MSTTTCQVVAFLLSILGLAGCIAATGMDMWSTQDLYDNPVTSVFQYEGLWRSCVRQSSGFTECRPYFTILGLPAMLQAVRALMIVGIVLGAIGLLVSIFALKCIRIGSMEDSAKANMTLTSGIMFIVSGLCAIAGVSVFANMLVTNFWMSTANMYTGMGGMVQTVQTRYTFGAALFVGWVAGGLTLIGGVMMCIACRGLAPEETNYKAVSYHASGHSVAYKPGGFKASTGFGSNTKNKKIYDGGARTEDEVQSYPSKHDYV

Kd (human Claudin18.2 [1]): 1.59 nM | Kd (human Claudin18.2 [2]): 5.31 nM
B1: Zolbetuximab (SI-64C8) (antibody, V domains shown)
VH: QVQLQQPGAELVRPGASVKLSCKASGYTFTSYWINWVKQRPGQGLEWIGNIYPSDSYTNYNQKFKDKATLTVDKSSSTAYMQLSSPTSEDSAVYYCTRSWRGNSFDYWGQGTTLTVSS
VL: DIVMTQSPSSLTVTAGEKVTMSCKSSQSLLNSGNQKNYLTWYQQKPGQPPKLLIYWASTRESGVPDRFTGSGSGTDFTLTISSVQAEDLAVYYCQNDYSYPFTFGSGTKLEIKR

Kd (human Claudin18.2 [1]): 1.45 nM | Kd (mouse Claudin18.2): 1.73 nM | binding result (rat Claudin18.1): no binding | binding result (mouse Claudin18.1): no binding | binding result (human Claudin18.1): no binding | Kd (human Claudin18.2 [2]): 0.216 nM
B2: 5103F3 BSM (SI-64M1) (antibody, V domains shown)
VH: QVQLQESGGRLIKPGEPLRLSCKTSGIDLSGFAMGWVRQAPGKGLEYIGFIDSGGGAFYATWARGRFTISRTSTNTVYLQMNSLTAEDTAVYYCARHGGNTYYYAMDPWGPGTLVTVSS
VL: ALRMTQSPSSLAATTGQRVTITCQASQSISNYLAWYQQKPGQPPKLLIYSASTLASGVPSRFKGSGSGTQFTLTISCVQCEDFATYYCQQVYSVTNIDNAFGGGTRVEIK

Kd (human Claudin18.2 [1]): 3 nM
B3: 5208H10 (SI-64CH5) (antibody, V domains shown)
VH: QSVKESEGGLFKPTDTLTLTCTVSGFSLSTYAMSWVRQAPGNGLEWIGIIDAVGRTYYASWAKSRSTITRNTNLNTVTLKMTSLTAADTATYFCARWWDLWGQGTLVTVSS
VL: AQVLTQTASSVSAAVGGTVTINCQSSQSVYDSNDLTWYQQKPGQSPKLLIYLASTLASGVPSRFKGSGSGTQFTLTISDLECDDSATYYCAAHYNSDIYTFGGGTEVEVK
